Source: paper PMC1557820 (Nucleic Acids Research, 2006)

Molecular target: T1, N-terminal domain of S. cerevisiae methionyl-tRNA synthetase (residues 1-160) (S. cerevisiae, UniProt P00958 1-160)
T1 sequence (looked up): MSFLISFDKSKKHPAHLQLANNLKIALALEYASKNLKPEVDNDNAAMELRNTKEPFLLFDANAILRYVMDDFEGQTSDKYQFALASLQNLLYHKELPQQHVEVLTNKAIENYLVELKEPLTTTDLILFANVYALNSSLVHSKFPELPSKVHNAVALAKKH
Test: SEC

B1: N-terminal domain of S. cerevisiae Arc1p (residues 1-122) (domain or fragment, UniProt P46672 1-122, looked up)
chain: MSDLVTKFESLIISKYPVSFTKEQSAQAAQWESVLKSGQIQPHLDQLNLVLRDNTFIVSTLYPTSTDVHVFEVALPLIKDLVASSKDVKSTYTTYRHILRWIDYMQNLLEVSSTDKLEINHD
stoichiometry N: 1
